The target in assay [1] is human dopamine D1A receptor (human) (UniProt P21728). The experiment in a line: cell-based or functional assay.
Assay [2] concerns the target human adenosine A2a receptor (ADORA2A) (human) (UniProt P29274). As to the kind of experiment: cell-based or functional assay.

Sequence of human Golf protein (P38405 2-381 limits assumed): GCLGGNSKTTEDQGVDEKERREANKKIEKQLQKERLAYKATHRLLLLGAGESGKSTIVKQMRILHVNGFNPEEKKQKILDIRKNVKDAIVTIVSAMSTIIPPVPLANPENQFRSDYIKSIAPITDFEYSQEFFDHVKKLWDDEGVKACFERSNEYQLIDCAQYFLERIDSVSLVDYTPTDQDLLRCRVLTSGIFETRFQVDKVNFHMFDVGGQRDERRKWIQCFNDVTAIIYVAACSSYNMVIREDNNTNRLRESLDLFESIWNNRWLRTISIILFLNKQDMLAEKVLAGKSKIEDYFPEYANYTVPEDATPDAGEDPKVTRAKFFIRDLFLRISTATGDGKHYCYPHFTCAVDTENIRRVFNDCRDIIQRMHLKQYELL
Sequence of human adenosine A2a receptor (ADORA2A) (human) (P29274 whole entry): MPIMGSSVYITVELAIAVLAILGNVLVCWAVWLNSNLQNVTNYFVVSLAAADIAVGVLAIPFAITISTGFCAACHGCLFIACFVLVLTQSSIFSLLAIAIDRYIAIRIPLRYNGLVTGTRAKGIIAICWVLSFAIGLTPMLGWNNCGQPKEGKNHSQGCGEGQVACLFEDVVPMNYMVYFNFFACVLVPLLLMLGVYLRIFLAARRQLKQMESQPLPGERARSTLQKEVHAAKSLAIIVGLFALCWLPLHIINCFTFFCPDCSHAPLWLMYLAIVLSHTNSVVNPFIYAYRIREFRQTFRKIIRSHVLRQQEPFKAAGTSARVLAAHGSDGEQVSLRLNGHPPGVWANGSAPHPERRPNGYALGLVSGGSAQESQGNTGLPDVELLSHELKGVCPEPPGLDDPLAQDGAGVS
Sequence of human dopamine D1A receptor (human) (P21728 whole entry): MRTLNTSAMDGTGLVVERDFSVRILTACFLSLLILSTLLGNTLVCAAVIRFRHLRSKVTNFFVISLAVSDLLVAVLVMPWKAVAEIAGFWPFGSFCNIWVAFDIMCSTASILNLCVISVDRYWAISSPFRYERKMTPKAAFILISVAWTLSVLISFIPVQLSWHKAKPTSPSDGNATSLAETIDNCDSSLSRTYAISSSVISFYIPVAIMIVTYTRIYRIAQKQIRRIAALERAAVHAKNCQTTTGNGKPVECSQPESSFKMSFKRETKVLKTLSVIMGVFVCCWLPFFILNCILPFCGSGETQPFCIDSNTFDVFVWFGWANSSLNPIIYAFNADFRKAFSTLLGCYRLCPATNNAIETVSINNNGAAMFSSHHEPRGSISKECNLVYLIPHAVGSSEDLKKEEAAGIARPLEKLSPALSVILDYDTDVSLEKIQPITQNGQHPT

In the case of “human Golf protein (from UniProt P38405 2-381)”, in assay [1], the efficacy (Emax) of dopamine-induced [35S]-GTPγS binding, membranes of Sf9 cells co-expressing DRD1 and Golf came to 231%. In assay [2], this substance returned an induction of GTPγS agonist signal, A2a receptor co-expressed with Golf in Sf9 cells of 0.2.

(Values after patent US20070254313A1, “Gnal Splice Variant and Uses Thereof” (AstraZeneca AB, priority 2003, published 2007).)
